Measurements published in patent publication US20260167720A1 (Amgen, published 2026).

Legend:
Assay in all cases: cell-based or functional assay
[1] = molecular target: T1, MSLN (Mesothelin) on HCT116 or GSU cells (UniProt Q13421 37-598, limits assumed)
[2] = molecular target: T2, CDH3 (Cadherin-3, P-Cadherin) on HCT116 or GSU cells (UniProt P22223 108-829, limits assumed)
[3] = molecular target: T1, MSLN (Mesothelin) on HCT116 or GSU cells; remark: listed apart in the source
[4] = molecular target: T2, CDH3 (Cadherin-3, P-Cadherin) on HCT116 …; remark: listed apart in the source

- EC50 GSU KO CDH3 [pM]; TDCC, CDH3 knocked out, MSLN left [1]: 10.5 pM
- EC50 GSU WT [pM]; TDCC, cells double positive for CDH3 and MSLN [1]: 0.128 pM
- EC50 GSU KO MSLN [pM]; TDCC, MSLN knocked out, CDH3 left [2]: 175 pM
- EC50 GSU WT [pM]; TDCC, cells double positive for CDH3 and MSLN [2]: 0.128 pM
- EC50 HCT116 KO CDH3 [pM]; TDCC, CDH3 knocked out, MSLN left [3]: 8.07 pM
- EC50 HCT116 WT [pM]; TDCC, cells double positive for CDH3 and MSLN [3]: 0.039 pM
- EC50 HCT116 KO MSLN [pM]; TDCC, MSLN knocked out, CDH3 left [4]: 2.25 pM
- EC50 HCT116 WT [pM]; TDCC, cells double positive for CDH3 and MSLN [4]: 0.039 pM
B1: MSLN-CDH3 T-cell engager molecule 5 (example to FIG. 2D) (bispecific antibody, human IgG1, kappa, N297G)
chain 1: not shown
chain 2: EVQLVESGGGLVQPGGSLKLSCAASGFTFNKYAMNWVRQAPGKGMEWVARIRSKYNNYATYYADAVKDRFTISRDDSKNTLYLQMNNLKTEDTAVYYCVRAGNFGSSYISYFAYWGQGTLVTVSSGGGGQGGGGQGGGGQQTVVTQEPSLTVSPGGTVTITCGSSTGAVTSGNYPNWIQKKPGQAPRGLIGGTKFLAPGTPARFSGSLEGGKAALTLSGVQPEDEAEYYCVLYYSNRWVFGSGTKLTVLGGGGGDKTHTCPPCPAPELLGGPSVFLFPPKPKDTLMISRTPEVTCVVVDVSHEDPEVKFNWYVDGVEVHNAKTKPCEEQYGSTYRCVSVLTVLHQDWLNGKEYKCKVSNKALPAPIEKTISKAKGQPREPQVYTLPPSRKEMTKNQVSLTCLVKGFYPSDIAVEWESNGQPENNYKTTPPVLKSDGSFFLYSKLTVDKSRWQQGNVFSCSVMHEALHNHYTQKSLSLSPGKGGGGQGGGGQGGGGQQVQLQESGPGLVKPSETLSLTCTVSGGSISSSSYFWGWIRQPPGKCLEWIGNIYYSGSSNYNPSLKSRVTISVDTSKNQFSLKLSSVTAADTAVYYCARLPRGDRDAFDIWGQGTMVTVSSGGGGQGGGGQGGGGQEIVMTQSPSSLSASVGDRVTITCRASQGISNYLAWYQQKPGKVPKLLIYAASTLQSGVPSRFSGSGSGTDFTLTISSLQPEDFATYYCQQSYSTPFTFGCGTKVEIK
chain 3: EIQMTQSPSSLSASVGDRVTITCRASQDISNYLNWYQQKPGKVPKLLIYYTSRLHSGVPSRFSGSGSGTDFTLTISSLQPEDVATYYCVQYAQFPLTFGCGTKVEIKRTVAAPSVFIFPPSDEQLKSGTASVVCLLNNFYPREAKVQWKVDNALQSGNSQESVTEQDSKDSTYSLESTLTLSKADYEKHKVYACEVTHQGLSSPVTKSFNRGEC
